From doi:10.1101/2025.05.21.655431 (bioRxiv, 2025) come the findings set out here.

Where two headings read alike, the source gives them in different places.

The target of one series is His-WRKY48 (recombinant) (Arabidopsis thaliana, UniProt Q9FGZ4 1-399). Nature of the series: pull-down.
The target of series [1] is T1, WRKY8 (Arabidopsis thaliana, UniProt Q9FL26 1-326). Nature of the series: EMSA.
Series [2] has as its target T2, WRKY28 (Arabidopsis thaliana, UniProt Q8VWJ2 1-318). Nature of the series: EMSA.
The target of series [3] is T3, WRKY48 (Arabidopsis thaliana, UniProt Q9FGZ4 1-399). Nature of the series: EMSA.
T3 sequence (Q9FGZ4 whole entry): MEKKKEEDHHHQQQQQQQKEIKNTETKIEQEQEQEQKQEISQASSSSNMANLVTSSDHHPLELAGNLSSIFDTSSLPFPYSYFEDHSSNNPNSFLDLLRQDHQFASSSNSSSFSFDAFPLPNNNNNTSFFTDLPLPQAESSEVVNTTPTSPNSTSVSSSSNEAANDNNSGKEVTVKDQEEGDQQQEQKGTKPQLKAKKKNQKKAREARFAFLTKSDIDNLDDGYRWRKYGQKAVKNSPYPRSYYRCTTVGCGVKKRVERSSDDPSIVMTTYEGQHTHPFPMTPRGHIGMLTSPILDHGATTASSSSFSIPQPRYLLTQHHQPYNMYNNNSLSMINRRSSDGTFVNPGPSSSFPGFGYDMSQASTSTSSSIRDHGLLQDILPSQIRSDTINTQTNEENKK
Series [4] addresses T1, WRKY8. Nature of the series: EMSA. The source holds these as a separate data set.
For series [5], the target named is T2, WRKY28. The experiment in a line: EMSA. The source holds these as a separate data set.
The target in series [6] is T3, WRKY48. The experiment in a line: EMSA. The source holds these as a separate data set.

T2 sequence (Q8VWJ2 whole entry): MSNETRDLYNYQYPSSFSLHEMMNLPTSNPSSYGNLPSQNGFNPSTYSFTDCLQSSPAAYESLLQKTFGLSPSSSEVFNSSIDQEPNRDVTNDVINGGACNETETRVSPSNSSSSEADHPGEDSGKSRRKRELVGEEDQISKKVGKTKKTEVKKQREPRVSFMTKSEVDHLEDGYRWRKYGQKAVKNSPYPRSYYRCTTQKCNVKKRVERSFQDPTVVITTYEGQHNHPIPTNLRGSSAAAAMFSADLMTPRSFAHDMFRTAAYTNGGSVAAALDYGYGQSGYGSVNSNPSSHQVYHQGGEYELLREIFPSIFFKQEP
T1 sequence (Q9FL26 whole entry): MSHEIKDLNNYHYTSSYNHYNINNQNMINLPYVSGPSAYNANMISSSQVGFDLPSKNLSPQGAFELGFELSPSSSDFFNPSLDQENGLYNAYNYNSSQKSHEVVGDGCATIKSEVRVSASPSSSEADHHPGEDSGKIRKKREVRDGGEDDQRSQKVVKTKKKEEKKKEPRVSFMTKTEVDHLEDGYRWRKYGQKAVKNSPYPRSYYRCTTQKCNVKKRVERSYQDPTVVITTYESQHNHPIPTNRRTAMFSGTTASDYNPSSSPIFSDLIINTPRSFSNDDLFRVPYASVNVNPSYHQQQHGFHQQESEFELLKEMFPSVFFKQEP
Sequence of His-WRKY48 (recombinant) (Q9FGZ4 whole entry): as the sequence (Q9FGZ4 whole entry) above

B1: GST-MPK3 (recombinant) (enzyme, Arabidopsis thaliana, UniProt Q39023 1-370, looked up)
chain: MNTGGGQYTDFPAVETHGGQFISYDIFGSLFEITSKYRPPIIPIGRGAYGIVCSVLDTETNELVAMKKIANAFDNHMDAKRTLREIKLLRHLDHENIIAIRDVVPPPLRRQFSDVYISTELMDTDLHQIIRSNQSLSEEHCQYFLYQLLRGLKYIHSANIIHRDLKPSNLLLNANCDLKICDFGLARPTSENDFMTEYVVTRWYRAPELLLNSSDYTAAIDVWSVGCIFMELMNRKPLFPGKDHVHQMRLLTELLGTPTESDLGFTHNEDAKRYIRQLPNFPRQPLAKLFSHVNPMAIDLVDRMLTFDPNRRITVEQALNHQYLAKLHDPNDEPICQKPFSFEFEQQPLDEEQIKEMIYQEAIALNPTYG
Consider B1, for which the binding result in the series with His-WRKY48 (recombinant) is “binds”.

B2: CIPK6 promoter P1 (TTGACA) (dsDNA)
DNA 1: CATCGCTATCCAAATAATTGACAAACTCGAAGCCGCC
DNA 2: GGCGGCTTCGAGTTTGTCAATTATTTGGATAGCGATG
Consider B2, for which the binding result with WRKY8 [1] is on record as “no binding”; in the series with WRKY28 [2], “no binding”; with WRKY48 [3], “binds”.

B3: CIPK6 promoter P1+P2 (dsDNA)
DNA 1: TAAATCGCATCGTGACCGGTCATAAAAAGACACGTGTCGTCATCGCTATCCAAATAATTGACAAACTCGAAGCCGCCAAGGG
DNA 2: CCCTTGGCGGCTTCGAGTTTGTCAATTATTTGGATAGCGATGACGACACGTGTCTTTTTATGACCGGTCACGATGCGATTTA
B3: the binding result with WRKY8 [4] was “no binding”; in the series with WRKY28 [5], “no binding”; in the series with WRKY48 [6], “binds”.

B4: CIPK6 promoter P2 (GGTCA) (dsDNA)
DNA 1: GTTTAATTACTATCACACCGGTCACGCTGGTTTACC
DNA 2: GGTAAACCAGCGTGACCGGTGTGATAGTAATTAAAC
In the case of B4, the binding result with WRKY8 [1] and in the series with WRKY28 [2] was “no binding” in each case.
